Laboratory results from patent US20240360208A1 (Hoffmann-La Roche, published 2024).
Numbering of substitutions follows the chain as printed.

What was measured:
[1] = target: T1, human CCL2 (MCP1) - wild type (wt) (human, UniProt P13500 24-99); assay: SPR T200, 25 C, anti-human Fc capture, 1:1 model, pH 7.1
T1 construct: Made in-house or bought (R&D Systems 279-MC), depending on the assay; can form dimers; also called wt human CCL2; WT human CCL2
Method: (§1) An antibody capture system was established. 13000 MAb<h-Fc-pan>M-R10Z8E9-IgG (Roche) were immobilized at 25° C. at 18 μg/ml in 10 mM sodium acetate buffer pH 5.0, by EDC/NHS coupling as described by the manufacturer. The capture system was regenerated by an injection at 20 μl/min with HBS buffer (100 mM HEPES pH 7.4, 1.5 M NaCl, 0.05% (w/v) Tween 20), followed by a 1 min 15 see injection with 10 mM NaOH and two 10 mM glycine buffer pH 2.5 injections for 1 min. Antibodies were captured were injected for 30 see at 10 μl/min at 80 nM concentration diluted in the respective system buffer. […] The analyte contact time was 3 min and the dissociation time was 10 min. Analyte kinetics were performed at 50 μl/min.
(§2) The Biaevaluation software V.3.0 was used according to the instructions of the manufacturer GEHC. A 1:1 binding model with RMAX local was applied to determine kinetic rates.

[2] = target: T1, human CCL2 (MCP1) - wild type (wt); assay: cell-based or functional assay
[3] = target: T1, human CCL2 (MCP1) - wild type (wt); assay: SPR T200, 25 C, anti-human Fc capture, 1:1 model, pH 7.4
Method: as §1, §2

[4] = target: T1, human CCL2 (MCP1) - wild type (wt); assay: SPR T200, 25 C, anti-human Fc capture, 1:1 model, pH 5.5
Method: as §1, §2

[5] = target: T1, human CCL2 (MCP1) - wild type (wt); assay: SPR T200, 37 C, antibody captured, 1:1 model
How it was run: (§3)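 Antibodies from clone supernatants were captured for 1 min, then wild-type or monomeric P8A CCL2 was injected at up to 90 nM at 30 μl/min. Association lasted 3 min and dissociation 10 min. Kinetic rates were fitted with local Rmax.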

[6] = target: T2, human CCL2 (MCP1) - P8A variant (human, UniProt P13500 24-99); assay: SPR T200, 37 C, antibody captured, 1:1 model
T2 construct: In-house point mutant that cannot dimerise; also called monomeric human CCL2; monomeric CCL2
How it was run: as §3

[7] = target: T1, human CCL2 (MCP1) - wild type (wt); assay: SPR T200, 25 C, anti-human Fc capture, 1:1 model, pH 6.3
[8] = target: T3, human CCL8 (MCP2) - wild type (wt) (human, UniProt P80075 24-99); assay: SPR (Biacore T200), 25 °C, ACES pH 7.4; antibody captured on anti-human IgG (Fc), chemokine injected at 5 nM and 20 nM
T3 construct: also called huCCL8
T3 sequence: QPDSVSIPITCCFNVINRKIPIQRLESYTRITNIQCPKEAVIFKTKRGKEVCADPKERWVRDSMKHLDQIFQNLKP
Method: (§4) Biacore assay method: The binding of anti-CCL2 antibodies to the CCL homologs e.g. CCL2 (MCP-1), CCL8 (MCP-2), CCL7 (MCP-3), and CCL13 (MCP-4) were assessed at 25° C. using Biacore T200 instrument (GE Healthcare). Mouse anti-human IgG (Fc) (GE Healthcare) was immobilized on each flow cells of a CM4 sensor chip using amine coupling kit (GE Healthcare) according to the recommended settings by the manufacturer. Antibodies and analytes were diluted into ACES pH 7.4 buffer (20 mM ACES, 150 mM NaCl, 1 mg/ml BSA, 0.05% Tween 20, 0.005% NaN3). Antibodies were captured onto the anti-Fc sensor surfaces, then recombinant human CCL homologs proteins was injected over the flow cell at 5 nM and 20 nM. […] Sensor surface was regenerated each cycle with 3M MgCl2. Binding sensorgram was processed using Biacore T200 Evaluation software, version 2.0 (GE Healthcare).

[9] = target: T4, human CCL7 (MCP3) - wild type (wt) (human, UniProt P80098 24-99); assay: as above
T4 construct: Bought from R&D Systems for the homolog assay
Method: as §4

[10] = target: T1, human CCL2 (MCP1) - wild type (wt); assay: SPR T200, 25 C, anti-human Fc capture, 1:1 model, pH 8.3; pH 8.3
[11] = target: T1, human CCL2 (MCP1) - wild type (wt); assay: SPR T200, 25 C, anti-human Fc capture, 1:1 model, pH 8.3
Method: as §1, §2

[12] = target: T1, human CCL2 (MCP1) - wild type (wt); assay: SPR T200, 25 C, anti-human Fc capture, 1:1 model, pH 7.9
Method: as §1, §2

[13] = target: T1, human CCL2 (MCP1) - wild type (wt); assay: SPR T200, 25 C, anti-human Fc capture, 1:1 model, pH 6.7
[14] = target: T1, human CCL2 (MCP1) - wild type (wt); assay: SPR T200, 25 C, anti-human Fc capture, 1:1 model, pH 5.9
Method: as §1, §2

[15] = target: T1, human CCL2 (MCP1) - wild type (wt); assay: cell-based or functional assay; remark: listed apart in the source
[16] = target: T2, human CCL2 (MCP1) - P8A variant; assay: SPR T200, 37 C, anti-human Fc capture, 1:1 model, pH 5.8
Method: (§5) Anti-human Fc (GE Healthcare) was immobilized on each flow cells of a CM4 sensor chip using amine coupling kit (GE Healthcare) according to the recommended settings by the manufacturer. Antibodies and analytes were diluted into ACES pH 7.4 or pH 5.8 buffer (20 mM ACES, 150 mM NaCl, 1 mg/ml BSA, 0.05% Tween 20, 0.005% NaN3). […] Sensor surface was regenerated each cycle with 3M MgCl2.

[17] = target: T2, human CCL2 (MCP1) - P8A variant; assay: SPR T200, 37 C
Method: as §5

[18] = target: T2, human CCL2 (MCP1) - P8A variant; assay: SPR T200, 37 C, anti-human Fc capture, 1:1 model, pH 7.4
Method: as §5

[19] = target: T5, human CCL8 (MCP2) - P8A variant (human, UniProt P80075 24-99); assay: SPR T200, 37 C, anti-human Fc capture, 1:1 model, pH 7.4; pH 7.4
T5 construct: Proline 8 of mature CCL8 (NP_005614.2) mutated to alanine; also called monomeric human CCL8; CCL8 P8A variant (monomer)
T5 chain: T3 sequence with P8A
Method: as §5

B1: Humanized 11K2 (=11K2) (antibody, IgG1, V domains shown)
VH: QVQLVQSGAEVKKPGSSVKVSCKASGLTISDTYMHWVRQAPGQGLEWMGRIDPANGNTKFDPKFQGRVTITADTSTSTAYMELSSLRSEDTAVYYCARGVFGFFDYWGQGTTVTVSS
VL: DIQMTQSPSSLSASVGDRVTITCKATEDIYNRLAWYQQKPGKAPKLLISGATSLETGVPSRFSGSGSGTDYTLTISSLQPEDFATYYCQQFWSAPYTFGGGTKVEIK
notes: IgG1 with kappa light chain; also called CCL2-0002; humanized 11k2 IgG1
With B1 the Kd [1] was 0.01 nM, the “t 1/2-diss.” value [1] was 3.58 h and the “IC50, inhibition of THP-1 migration (chemotaxis assay)” value [2] was 0.7 µg/mL. The Kd [3] was 0.02 nM, the “t 1/2-diss.” value [3] was 2.72 h and the Kd [4] was 0.01 nM. For the same binder, the “t 1/2-diss.” value [4] was 1.97 h, the Kd [5] was 0.028 nM and the “T1/2” value [5] was 1.97 h. The Kd [6] was 0.035 nM, the “T1/2” value [6] was 1.93 h and the Kd [7] was 0.003 nM. The “t 1/2-diss.” value [7] was 19.2 h, the binding result [8] was “binds” and the binding result [9] was “no binding (tested: 20 nM)”. For the same binder, the Kd [10] was at most 0.003 nM, the “t 1/2-diss.” value [11] was 19.2 h and the Kd [12] was 0.02 nM. The “t 1/2-diss.” value [12] was 2.75 h, the Kd [13] was 0.01 nM and the “t 1/2-diss.” value [13] was 4.87 h. The Kd [14] was 0.01 nM, the “t 1/2-diss.” value [14] was 4.78 h and the “THP1 chemotaxis [fold change compared to IgG control]” value [15] was 7.2 fold.

B2: CKLO03 (IgG1 wild type) (bispecific antibody, V domains shown)
VH 1: B1 VH with D31H, A54D, G56H, Y106H
VL 1: B1 VL with S49H, T56H, W92R
VH 2: QVQLVQSGAEVKKPGSSVKVSCKASGGTFSHYGISWVRQAPGQGLEWMGGVIPIFHTANYAQKFQGRVTITADESTSTAYMELSSLRSEDTAVYYCARYDAHYGELDFWGQGTLVTVSS
VL 2: EIVLTQSPATLSLSPGERATLSCRASQHVSDAYLAWYQQKPGQAPRLLIYDASDRAEGVPARFSGSGSGTDFTLTISSLEPEDFAVYYCHQYIHLHSFTFGQGTKVEIK
notes: CrossMab, IgG1 wild type with knobs-into-holes; also called CKLO3; 11K2H1503/11K2L1201//CNTO888H0695/CNTO888L0616
For B2, the Kd [16] was 21.7 nM, the “fold weaker KD at pH 5.8 than at pH 7.4” value [17] was over 1000 fold and the Kd [18] was 0.00685 nM.

B3: CKLO01 (IgG1 wild type) (bispecific antibody, V domains shown)
VH 1: B1 VH with D31H, A54D, G56H, Y106H
VL 1: B1 VL with T26F, L33R, S49H, T56H
VH 2: B2 VH 2
VL 2: B2 VL 2
notes: also called CKLO1; 11K2H1503/11K2L1338//CNTO888H0695/CNTO888L0616
In the case of B3, the Kd [19] is reported as 23.3 nM.
